From patent publication US8535662B2, “Apyrase therapy for bleeding conditions” (Apt Therapeutics, Inc., priority 2010, dated 2013)

What was measured:
[1] = tested on: rats, embolic stroke (thrombus injection into internal carotid artery); assay: Embolic stroke model in rats, apyrase agent with or without r-tPA (Example 1); assay type: in vivo, rat; details: brains at 3 days
Method: The following groups were included in this study:
(1) control (saline treated), n=11;
(2) apyrase agent at 0.75 mg/kg, n=4;
(3) apyrase agent at 2.25 mg/kg, n=4;
(4) r-tPA (at 10 mg/kg), n=4;
(5) apyrase agent at 0.75 mg/kg plus r-tPA (10 mg/kg) and
(6) apyrase agent at 2.25 mg/kg plus r-tPA (10 mg/kg) (n=10).
All the treatments were initiated at 2 h following thrombus injection into internal carotid artery. Infarct volume and behavioral deficit were determined at day 3 after the stroke.

[2] = tested on: rats, MCAO suture model with hyperglycemia; assay: Hyperglycemic hemorrhagic transformation in rat focal ischemia (MCAO suture model) (Example 3); assay type: in vivo
Method: Focal ischemia was produced using the MCAO (Middle Cerebral Artery Occlusion) suture model in rats. Removal of the suture at 3.5 h after MCAO signaled the beginning of the reperfusion period. Ischemia-reperfusion causes blood extravasation into infracted brain tissues, showing multiple dots, small petechiae and more confluent petechial hemorrhage.
The animals were divided into three groups: […]
Rats were sacrificed at 8 h after MCAO and brains were frozen and cut into 20 μm frozen sections with intervals at 1 mm. The sections were stained with hematoxylin-eosin (HE) or cresyl violet. The H-E staining was used for measurements of hemorrhage rate and hemorrhage volume. The cresyl violet staining was used for quantifying infarct volume and brain swelling. An MCID™ digital image analysis system (Imaging Research, Inc, St. Catherines, Ontario, Canada) was used for quantifying hemorrhage and infarct volume.

[3] = Pharmacokinetic study in rabbits, single IV bolus (serum ADPase and ATPase activities); assay type: in vivo, rabbit
Method: Pharmacokinetic studies of apyrase agent (sol CD39L3 R67G T69R) were conducted in rabbits where a single bolus was injected intravenously. At various time points (10 min to 24 h after injection), rabbits were bled by cardiac puncture and serum was prepared. Serum samples were examined for both ADPase and ATPase activities.

[4] = tested on: ADP-induced platelet aggregation; assay: Ex vivo ADP-induced platelet aggregation in platelet-rich plasma after dosing rabbits; parameters: species or system rabbit
Excerpt: Blood samples taken at various time points were heparinized.
Data are presented as relative light transmission versus time.

[5] = tested on: dogs, coronary thrombotic occlusion; assay: Canine coronary thrombosis and fibrinolysis model, adjunctive treatment with rtPA (Example 7); assay type: in vivo, dog; details: for decrease of infarct area compared to clopidogrel treatment: percent of left ventricular area or of area-at-risk, 24 hours of reperfusion
Method: Thrombotic occlusion was induced by electrical injury to a coronary artery in dogs. […] Buccal mucosa bleeding times, PT, and aPTT were measured as indices of bleeding risk. After 24 hours of reperfusion, infarct size was determined by Evan's blue and triphenyltetrazolium chloride double staining. This protocol is illustrated in FIG. 7.

[6] = tested on: C57BL/6J mice, myocardial ischemia; assay: Mouse model of cardiac ischemia/reperfusion injury (Example 8); assay type: in vivo; details: 24 hr reperfusion
Method: A mouse model of cardiac ischemia/reperfusion injury was used to determine the effect of apyrase agent on infarct size. Myocardial ischemia was produced in C57BL/6J mice via left anterior coronary artery ligation. Mice were treated with apyrase agent (1 mg/kg, IV) or saline 5 min prior to 60 min of experimentally-induced myocardial ischemia or 50 min after ischemia (n=6-8 per group). After 24 hr of reperfusion, hearts were excised and area at risk and infarct size were determined by Evan's blue and triphenyltetrazolium staining.

F344 rats, lung graft = assay: Airway administration of apyrase agent after rat lung graft (Example 10); assay type: in vivo; details: for PaO2: saline about 200; for neutrophil accumulation in lung graft airways: saline control 12×10^2
Method: F344 rat lung grafts were flushed and cold preserved in Apyrase agent solution (0.2 mg/L) and engrafted into syngeneic F344 recipients.
At 5 minutes post-reperfusion 1 ml apyrase agent solution (1 mg/kg) (N=6) or an equivalent volume of saline carrier was administered to the trachea at approximately 5 minutes post-reperfusion (N=7). In additional group of lung graft recipients that were treated with apyrase agent intratracheally, apyrase agent was also administered intravenously at 7 minutes post-reperfusion at 0.66 mg/kg (N=9). Lung graft oxygenation, airway cellularity and airway granulocyte numbers were measured 4 hours post-reperfusion. We noted no gross pulmonary hematomas in any treatment groups.

[7] = tested on: Wistar Furth recipients of Lewis lungs; assay: Allogenic rat lung transplant model, Lewis to Wistar Furth (Example 11); assay type: in vivo; details: rats, 0.66 mg/kg/day IV for 7 days
Method: Lewis donor lungs stored for a minimal cold ischemia time of 1 hr were engrafted into allogenic Wistar Furth recipients and treated for 7 days in the following manner:
1. Saline: Received Saline 250 μl/day
2. Apyrase: Received Apyrase agent, 0.66 mg/kg/day IV
3. CyA (standard): Received Cyclosporine A 25 mg/kg/day, IP (standard dose used in previous studies)
4. CyA (low): Received Cyclosporine A 5.0 mg/kg/day, IP (sub optimal dose)
5. CyA (low)+apyrase agent: Received Cyclosporine A 5.0 mg/kg/day, IP and Received apyrase agent, 0.66 mg/kg/day IV
On post-operative day 7 recipients were evaluated for lung graft function by assessing PaO2 (FIG. 10) and then sacrificed and scored blindly for vascular rejection (FIG. 11) using the ISHLT scoring system by a pathologist who routinely evaluates lung allograft rejection. The ISHLT scoring criteria is a scale from where a score of A0 there is no evidence of vascular rejection as in completely syngeneic recipients (e.g., Lewis to Lewis lung transplantation) to A4 as is almost always observed in Lewis to Wistar Furth Recipients. Statistical differences between treatment groups (n=10) were determined by the student t test where significance differences were assessed as p<0.05. Control group for the alloimmune response was the Lewis to Lewis lung transplant combination.

rabbits = details: rabbit, in vivo
Method: Rabbits were anesthetized with intramuscular ketamine/xylazine followed by inhaled isoflurane to maintain a stable level of surgical anesthesia for 5 h. Arterial blood pressure was monitored continuously and values for pressure and heart rate recorded at intervals after administration of apyrase agent and/or other antiplatelet agents. Venous blood samples were collected at baseline (before agents were given) for analysis of CBC and chemistry and samples were obtained serially for assay of prothrombin time (PT) and activated partial prothromboplastin time (aPTT).

B1: sol CD39L3 R67G T69R (protein)
chain: EVLPPGLKYGIVLDAGSSGTRVYVYQWPAEKENNTGVVSQTFKCSVKGSGISSYGNNPQDVPRAFEECMQKVKGQVPSHLHGSTPIHLGATAGMRLLRLQNETAANEVLESIQSYFKSQPFDFRGAQIISGQEEGVYGWITANYLMGNFLEKNLWHMWVHPHGVETTGALDLGGASTQISFVAGEKMDLNTSDIMQVSLYGYVYTLYTHSFQCYGRNEAEKKFLAMLLQNSPTKNHLTNPCYPRDYSISFTMGHVFDSLCTVDQRPESYNPNDVITFEGTGDPSLCKEKVASIFDFKACHDQETCSFDGVYQPKIKGPFVAFAGFYYTASALNLSGSFSLDTFNSSTWNFCSQNWSQLPLLLPKFDEVYARSYCFSANYIYHLFVNGYKFTEETWPQIHFEKEVGNSSIAWSLGYMLSLTNQIPAESPLIRLPIEPPV
modifications: glycosylated; synthetically constructed apyrase
Which results are given for B1?
Hemorrhage #/total animals ([1]; apyrase agent 0.75 mg/kg (alone or plus r-tPA 10 mg/kg)): 0/4; Hemorrhage #/total animals ([1]; apyrase agent 2.25 mg/kg (alone or plus r-tPA 10 mg/kg)): 0/4; hemorrhage volume in the striatum ([2]; 0.375 mg/kg IV at 3 h after MCAO (30 min before reperfusion), sacrifice at 8 h): 4.8±2.0 mm^3; neurological function ([2]; 0.375 mg/kg, 4.5 hour after MCAO): significantly improved neurological function; half life in the circulation [3]: approximately 24 h; inhibition of ADP-induced platelet aggregation ([4]; 0.75 mg/kg IV single bolus, 10 mM ADP): more than 95%; inhibition of ADP-induced platelet aggregation ([4]; 0.75 mg/kg IV, 6 h after dosing): 70%; time point after dosing at which strong effects were observed (onset of antiplatelet action) ([4]; apyrase agent 0.75 mg/kg IV): 5 min; buccal mucosa bleeding time ([5]; dog, in vivo): no detectable change; reocclusion ([5]; dogs, apyrase agent at 1 mg/kg): completely prevented reocclusion; decrease of infarct area compared to clopidogrel treatment ([5]; dogs, high dose (1 mg/kg IV)): 90%; decrease of infarct area compared to clopidogrel treatment ([5]; dogs, low dose (0.25 mg/kg IV)): 80%; reduction of infarct size compared to the control group ([6]; 1 mg/kg IV 5 minutes prior to ischemia, 60 min ischemia): approximately 50%; reduction of infarct size ([6]; 1 mg/kg IV 50 min after ischemia): approximately 50%; PaO2 (F344 rats, lung graft; IT 1 mg/kg and IV 0.66 mg/kg, 4 hours post-reperfusion): ~320 mm Hg; reduction of neutrophils in the airway (F344 rats, lung graft; airway administration, 4 hours post-reperfusion): over 50%; neutrophil accumulation in lung graft airways (F344 rats, lung graft; airway alone): 5×10^2 neutrophils; neutrophil accumulation in lung graft airways (F344 rats, lung graft; airway and IV): 3×10^2 neutrophils; PaO2 (F344 rats, lung graft; intratracheally (IT) 1 mg/kg, 4 hours post-reperfusion): about 300 mm Hg; alloimmune responses in lung allograft recipients (PaO2, ISHLT vascular rejection score) [7]: effective at suppressing alloimmune responses; PT (rabbits): Neither PT nor aPTT were changed significantly; aPTT (rabbits): Neither PT nor aPTT were changed significantly; blood pressure (rabbits): Neither blood pressure nor heart rate changed significantly; heart rate (rabbits): Neither blood pressure nor heart rate changed significantly
